The record followed here is patent publication US20180009892A1 (EUREKA THERAPEUTICS, published 2018).

The target of experiment [1] is T1, ROR1 extracellular domain Fc-fusion, dimer (human, UniProt Q01973 30-406).
T1 construct: also called ROR1 dimer; hROR1 dimeric ECD-Fc fusion protein; not shown: Fc part
Nature of the experiment: SPR, immobilised ROR1 dimer, antibody injected, 1:1 model. On the procedure:
(§1) The binding affinities of ROR1 extracellular domain dimer and monomer for anti-ROR1 antibodies were determined by surface plasmon resonance (SPR). ROR1 extracellular domain Fc-fusion, “dimer,” and ROR1 extracellular domain Fc fusion:Fc heterodimer, “monomer,” are the dimer and monomeric forms of ROR1 used for affinity analysis, respectively. Briefly, ROR1 dimer and monomer were directly immobilized to a CM4 chip using an amine coupling kit and 100 mM ethylenediamine in 100 mM Sodium Borate buffer, pH 8.0 as the blocking reagent. Approximately 100-150 RU of ROR1 dimer and monomer were immobilized on separate flow cells and an un-derivatized flow cell was used as a reference control. […] Dissociation was followed for 180 seconds. The association constant, dissociation constant, and affinity of each anti-ROR1 antibody was calculated using the Biacore T200 Evaluation Software 1:1 binding model.
(§2) Sensorgrams were normalized to 100 RU using the “binding stability point” at the end of the association phase but before the dissociation phase.
(Surface plasmon resonance follows binding to a sensor surface in real time, without labels.)

The target of experiment [2] is T1, ROR1 extracellular domain Fc-fusion, …. Description: SPR, immobilised ROR1 dimer, antibody injected, 1:1 model; apparent affinity. As to the method: as §1, §2
Experiment [3] concerns the target T2, ROR1 extracellular domain Fc fusion:Fc heterodimer, monomer (human).
T2 construct: Heterodimer of one ROR1 ECD-Fc chain and one Fc chain; also called ROR1 monomer; hROR1 monomeric ECD-Fc fusion protein; not shown: Fc part; Fc alone
Nature of the experiment: SPR, immobilised ROR1 monomer, antibody injected, 1:1 model. As to the method:
as §1, §2

In a further experiment the target is T3, mouse ROR1-ECD (mouse, UniProt Q9Z139 30-406).
T3 construct: extracellular domain; also called mROR1
Nature of the experiment: phage antibody protein ELISA. As to the method: (§3) Binding specificities of the 45 phage antibodies were determined by protein ELISA against human ROR1-ECD, human ROR2-ECD and mouse ROR1-ECD (FIG. 12).
(An ELISA detects its analyte on a solid surface through an enzyme-linked reagent.)

The target of another experiment is T4, human ROR2-ECD (human, UniProt Q01974 34-403).
T4 construct: extracellular domain; also called hROR2
Nature of the experiment: phage antibody protein ELISA. As to the method: as §3

In experiment [4] the target is T5, human ROR1 extracellular domain (ECD) protein (human, UniProt Q01973 30-406).
T5 construct: also called hROR1-ECD; human ROR1-ECD
Description: competitive phage ELISA: soluble ROR1 against ROR1-coated plate. On the procedure:
Purified phage antibodies were first diluted serially in PBST buffer, and tested for binding to a ROR1-coated plate. The dilution that gave 50-80% saturating signal was used in the solution binding assay in which phage were first incubated with increasing concentration of ROR1 for one to two hours, and then transferred to a ROR1-coated plate for 10-15 minutes to capture the unbound phage.

The target in experiment [5] is T1, ROR1 extracellular domain Fc-fusion, …. Nature of the experiment: SPR, immobilised ROR1 dimer, antibody injected, 1:1 model; second entry of 601-14. On the procedure:
as §1, §2

The target is the same in experiment [6]. Description: SPR, immobilised ROR1 dimer, antibody injected, 1:1 model; apparent affinity; second entry of 601-14. As to the method:
as §1, §2

Experiment [7] concerns the target T2, ROR1 extracellular domain Fc fusion:Fc …. Nature of the experiment: SPR, immobilised ROR1 monomer, antibody injected, 1:1 model; second entry of 601-14. As to the method:
as §1, §2

Substitutions are numbered along the chain they refer to.

T4 sequence (Q01974 34-403): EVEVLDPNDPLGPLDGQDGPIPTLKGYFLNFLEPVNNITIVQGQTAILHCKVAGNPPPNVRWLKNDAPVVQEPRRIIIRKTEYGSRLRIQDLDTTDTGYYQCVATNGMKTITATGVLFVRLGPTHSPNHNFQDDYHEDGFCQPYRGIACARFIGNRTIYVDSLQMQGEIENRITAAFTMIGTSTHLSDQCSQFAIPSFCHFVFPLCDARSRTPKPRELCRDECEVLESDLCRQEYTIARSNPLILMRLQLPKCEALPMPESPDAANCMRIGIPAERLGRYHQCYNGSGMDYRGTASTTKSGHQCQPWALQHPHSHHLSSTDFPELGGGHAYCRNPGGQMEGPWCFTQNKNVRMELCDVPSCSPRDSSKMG
T1 sequence (Q01973 30-406): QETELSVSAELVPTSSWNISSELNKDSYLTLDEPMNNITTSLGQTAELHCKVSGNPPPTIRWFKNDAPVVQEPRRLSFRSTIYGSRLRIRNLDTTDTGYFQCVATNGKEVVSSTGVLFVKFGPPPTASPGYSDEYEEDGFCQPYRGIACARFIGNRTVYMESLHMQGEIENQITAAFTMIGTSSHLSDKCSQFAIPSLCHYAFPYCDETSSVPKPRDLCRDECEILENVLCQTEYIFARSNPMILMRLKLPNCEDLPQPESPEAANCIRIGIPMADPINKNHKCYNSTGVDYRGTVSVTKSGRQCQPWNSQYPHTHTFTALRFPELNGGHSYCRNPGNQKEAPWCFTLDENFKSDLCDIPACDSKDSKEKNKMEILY
T5 sequence (Q01973 30-406 limits assumed): as the sequence (Q01973 30-406) above
T2 sequence (Q01973 30-406, one chain of several): as the sequence (Q01973 30-406) above
T3 sequence (Q9Z139 30-406): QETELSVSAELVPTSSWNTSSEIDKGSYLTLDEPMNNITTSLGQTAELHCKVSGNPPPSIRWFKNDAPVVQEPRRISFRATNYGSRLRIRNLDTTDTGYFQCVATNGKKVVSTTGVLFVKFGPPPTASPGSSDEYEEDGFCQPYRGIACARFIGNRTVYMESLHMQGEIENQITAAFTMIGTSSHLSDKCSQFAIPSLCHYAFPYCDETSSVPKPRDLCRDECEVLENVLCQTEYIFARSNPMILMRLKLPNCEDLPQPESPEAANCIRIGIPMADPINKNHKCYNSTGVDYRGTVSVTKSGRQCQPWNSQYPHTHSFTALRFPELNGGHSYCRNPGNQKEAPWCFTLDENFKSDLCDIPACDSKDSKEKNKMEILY

B1: Antibody 601-9 (antibody, V domains shown)
VH: QLQLQESGPGVVKPSGTLSLTCTVSGGSISRSDGYWGWVRQPPGKGLEWIGSIYDTGTTYYSPSLKSRLIISVDTSKNQFSLTLNSVTAADTAVYYCASMGGLRSSSSDAFHTWGPGTMVTVSS
VL: QSVLTQPPSVSVAPGETARITCGGTNIGSESVHWYQQRPGQAPVLVVYDDTDRPSGIPERFSGSNSGNTATLTISRVEAGDGADYYCQVWDSVSDRYVFGTGTKVTVL
As to B1, in experiment [1], the off-rate (koff) (commonly the first-order rate constant of dissociation) was determined as 0.021 s⁻¹ and the kon (commonly the second-order rate constant of association) is 1.4e+06 M⁻¹ s⁻¹. The Kd in [2] came out at 15.3 nM. In experiment [3], the Kd was 27.6 nM, the koff worked out at 0.017 s⁻¹ and the association rate constant (kon) came to 630000 M⁻¹ s⁻¹.

B2: P601-1 (scFv, V domains shown)
VH: EVQLVESGGGLVKPGGSLRLSCAASGFTFSDYYMSWIRQAPGKGLEWVSYISDSTNTIYYADSVKGRFTVSRDNPKNSLYLQMISLRAEDTAVYYCARAVGAGEGFDHWGQGTLVTVSS
VL: not shown
With B2, the binding result is listed as “binds” in the experiment with mouse ROR1-ECD and “no binding” with human ROR2-ECD. Besides, in [4], the IC50 (commonly the concentration that inhibits the measured activity by half) was determined as 0.11 nM.

B3: P601-57 (scFv, V domains shown)
VH: EVQLVQSGAEVKKPGSSVKISCKASGGAFTNFGISWVRQAPGQGLEWMGWISTYNSETNYAQKLQGRVTMTTDTSTSTAYMELRSLRSDDTAVYYCARDYYSDSSGYWDDAFDIWGQGTLVTVSS
VL: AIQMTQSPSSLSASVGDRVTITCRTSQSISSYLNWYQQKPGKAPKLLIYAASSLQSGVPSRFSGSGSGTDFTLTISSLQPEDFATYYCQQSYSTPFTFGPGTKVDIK
Take B3: in the experiment with human ROR2-ECD, the binding result is recorded as “no binding”. The molecule further showed an IC50 in [4] of 4.08 nM.

B4: P601-28 (scFv, V domains shown)
VH: EVQLVQSGGDLVQPGGSLRLSCAASGFTFSSYSMNWVRQAPGKGLEWVSSISSSSSYIYYADSVKGRFTISRDNAKNSLYLQMNSLRAEDTAVYYCARGLGGWTHDAFDIWGQGTTVTVSS
VL: QSALTQPASVSGSPGQSITISCTGTSSDVGGYNYVSWYQQHPGKAPKLMIFDVSNRPSGVSNRFSGSKSGNTASLTISGLQAEDEADYYCSSYTSSSTLFGGGTKLTVL
With B4, the figures for the binding result with mouse ROR1-ECD and in the experiment with human ROR2-ECD were “binds” and “no binding”, respectively. Besides, the IC50 in [4] was found to be 8.05 nM.

B5: P601-56 (scFv, V domains shown)
VH: QLQLQESGPGLVKPSETLSLTCTVSGGSISSSSYYWGWIRQPPGKGLEWIGSIYYSGSTYYNPSLKSRVTISVDTSKNQFSLKLGSVTAADTAVYYCARHDGTDAFDIWGQGTTVTVSS
VL: QSVLTQPASVSGSPGQSITISCTGTSSDFGDYDYVSWYQQHPGKAPKLMIYDVSDRPSGVSNRFSGSKSGNTASLTISGLQAEDEADYFCSSLTTSSTLVFGGGTKLTVL
As to B5, the binding result with mouse ROR1-ECD and with human ROR2-ECD was “no binding” each time. This molecule showed an IC50 in [4] of 1.85 nM.

B6: P601-14 (scFv, V domains shown)
VH: QVQLVQSGAEVKKPGESLKISCKDSGYSFTNYWLGWVRQMPGKGLEWMGIIYPGDSDTRYSPSFRGQVTISADKSISTAYLQWSSLKASDTAMYYCARLNLATHTAFDIWGQGTTVTVSS
VL: QSVLTQPASVSGSPGQSITISCTGTSSDVGGYNYVSWYQQHPGKAPKLMIYDVSNRPSGVSNRFSGSKSGNTASLTISGLQAEDEADYYCSSYTSSSTLWVFGGGTKLTVLG
On to B6, for which the binding result is “binds” with mouse ROR1-ECD and “no binding” with human ROR2-ECD. In experiment [4], this molecule yielded an IC50 of 3.22 nM.

B7: Antibody 601-14 (antibody, V domains shown)
VH: B6 VH
VL: B6 VL
On to B7, for which the off-rate constant (koff) in [5] is 0.0015 s⁻¹; in [1], 0.00066 s⁻¹; in [7] it was 0.0021 s⁻¹; in experiment [3], 0.0013 s⁻¹. The association rate constant (kon) came to 2.4e+06 M⁻¹ s⁻¹ in experiment [5], 2.7e+06 M⁻¹ s⁻¹ in [1], 2.4e+06 M⁻¹ s⁻¹ in experiment [7] and 3.2e+06 M⁻¹ s⁻¹ in [3]. In addition, the Kd in [6] was 0.6 nM; in experiment [7], 0.8 nM; in [2] it was 0.2 nM; in experiment [3], 0.4 nM.

B8: P601-51 (scFv, V domains shown)
VH: not shown
VL: QSALTQPASVSGSPGQSITISCTGTSSDFGDYDYVSWYQQHPGKAPKLMIYDVSDRPSGVSNRFSGSKSGNTASLTISGLQAEDEADYFCSSFTTSSTLVFGGGTKLTVLG
Take B8: the binding result with mouse ROR1-ECD and in the experiment with human ROR2-ECD was “no binding” in each case. This molecule also gave a half-maximal inhibitory concentration (IC50) in [4] of 0.62 nM.

B9: P601-37 (scFv, V domains shown)
VH: EVQLVQSGAEVKKPGASVKVSCKASGYTFNNYGFSWVRQAPGQGLEWMGWISVYNGNTNYAQKLQGRVTMTTDTSTSTAYMELRSLRSDDTAVYYCARDYYSDSSGYWDDAFDIWGQGTMVTVSS
VL: AIRMTQSPSSLSASVGDRVTITCQASQDISNYLNWYQQKPGKAPKLLIYAASSLQSGVPSRFSGSGSGTDFTLTISSLQPEDFATYYCQQSYSTPFTFGPGTKVDIK
Regarding B9, the binding result was “binds” with mouse ROR1-ECD and “no binding” with human ROR2-ECD. The half-maximal inhibitory concentration (IC50) in experiment [4] came out at 27.9 nM.

B10: P601-43 (scFv, V domains shown)
VH: B9 VH with E1Q, V5Q, K19R, T28S, N30G, Y32N, F34I, S35T, V53T, M120T
VL: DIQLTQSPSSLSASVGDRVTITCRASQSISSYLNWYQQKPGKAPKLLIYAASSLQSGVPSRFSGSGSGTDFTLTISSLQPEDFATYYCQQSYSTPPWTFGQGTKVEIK
For B10, in the experiment with human ROR2-ECD, the binding result is on record as “no binding”. The same molecule yielded an IC50 in [4] of 0.23 nM.
